From US20200270588A1, “GLUCOSYL TRANSFERASE POLYPEPTIDES AND METHODS OF USE” (Syngenta Participations AG, priority 2017, published 2020)
Changes are numbered by the printed parent chain. Names and notes keep the numbering of the source.

B1: A334R: bx9 SEQ ID NO:1 mutant (protein)
chain: MASSRTGAGAGGRVVVFPFPFQGHFNPVMRLARALHARGLAITVFHSGALDPADYPADYRFVPVTVEADPKLLASEDIAAIVTTLNASCDAPFRARLSALLAAEGRDSVRCVFTDVSWNAVLTASSDLGVPALGMMTASAASLRDYMAYRTLIDKGYLPVKEERKEDPVPELPPYLVKDLLRVDTSDLEEFAELLARTVTAARRASGLIFNTFPLIETDTLAEIHKALSVPVFAVAPLNKLVPTATASLHGVVQADRGCLQWLDTQQPGSVLYVSFGSMAAMDPHEFVELAWGLADSKRPFVWVVRPNLIRGFESGALPDGVEDEVRGRGIVVRWAPQEEVLAHPAVGGFLTHNGWNSTVEAISEGVPMVCCPRHGDQFGNMRYVCDVWKVGTELVGEQLERGQVKAAIDRLFGTKEGEEIKERMKEFKIAAAKGIGIGVDVDETASPRTDLTDLVDLIKSF
modifications: Zea mays
B2: A334N: bx9 SEQ ID NO:1 mutant (protein)
chain: B1 chain with R334N
modifications: Zea mays
B3: A334S: bx9 SEQ ID NO:1 mutant (protein)
chain: B1 chain with R334S
modifications: Zea mays
B4: F19M: bx9 SEQ ID NO:1 mutant (protein)
chain: B1 chain with F19M, R334A
modifications: Zea mays
B5: G376L: bx9 SEQ ID NO:1 mutant (protein)
chain: B1 chain with R334A, G376L
modifications: Zea mays
B6: L143M: bx9 SEQ ID NO:1 mutant (protein)
chain: B1 chain with L143M, R334A
modifications: Zea mays
B7: V199M: bx9 SEQ ID NO:1 mutant (protein)
chain: B1 chain with V199M, R334A
modifications: Zea mays
B8: I363M: bx9 SEQ ID NO:1 mutant (protein)
chain: B1 chain with R334A, I363M
modifications: Zea mays
B9: G376M: bx9 SEQ ID NO:1 mutant (protein)
chain: B1 chain with R334A, G376M
modifications: Zea mays
B10: A281C: bx9 SEQ ID NO:1 mutant (protein)
chain: B1 chain with A281C, R334A
modifications: Zea mays
B11: A281M: bx9 SEQ ID NO:1 mutant (protein)
chain: B1 chain with A281M, R334A
modifications: Zea mays
B12: L143Y: bx9 SEQ ID NO:1 mutant (protein)
chain: B1 chain with L143Y, R334A
modifications: Zea mays
B13: A281R: bx9 SEQ ID NO:1 mutant (protein)
chain: B1 chain with A281R, R334A
modifications: Zea mays
B14: I363L: bx9 SEQ ID NO:1 mutant (protein)
chain: B1 chain with R334A, I363L
modifications: Zea mays
B15: A281K: bx9 SEQ ID NO:1 mutant (protein)
chain: B1 chain with A281K, R334A
modifications: Zea mays
B16: A334V: bx9 SEQ ID NO:1 mutant (protein)
chain: B1 chain with R334V
modifications: Zea mays
B17: A281Q: bx9 SEQ ID NO:1 mutant (protein)
chain: B1 chain with A281Q, R334A
modifications: Zea mays
B18: A334L: bx9 SEQ ID NO:1 mutant (protein)
chain: B1 chain with R334L
modifications: Zea mays
B19: A334Q: bx9 SEQ ID NO:1 mutant (protein)
chain: B1 chain with R334Q
modifications: Zea mays
B20: T220Y: bx9 SEQ ID NO:1 mutant (protein)
chain: B1 chain with T220Y, R334A
modifications: Zea mays

Experiment: UDP luminescence plate assay of E. coli extracts, mutants of SEQ ID No: 1, 2 mM metribuzin
Format: biochemical, Zea mays
Details: 2 mM metribuzin
In short: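 Extracts of E. coli BL21 DE3 expressing C-terminally His-tagged SEQ ID NO:1 variants incubated with 2 mM metribuzin; UDP formed read by UDP-Glo luminescence against a UDP standard curve, with optional 95 C stop. Mutants ranked by metribuzin/DMSO signal ratio and signal increase over wild-type bx9.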

Question: For B1, which “SIGNAL: metribuzin signal of mutant divided by metribuzin signal of w/t bx9” value is on record?
Answer: 1.94

Question: Which “SIGNAL: metribuzin signal of mutant divided by metribuzin signal of w/t bx9” value does the source give for B2 here?
Answer: 1.56

Question: With B3 as the molecule, how does the “SIGNAL: metribuzin signal of mutant divided by metribuzin signal of w/t bx9” value read?
Answer: 0.98

Question: With B4 as the molecule, how does the “SIGNAL: metribuzin signal of mutant divided by metribuzin signal of w/t bx9” value read?
Answer: 0.86

Same assay, conditions: 2 mM metribuzin vs DMSO control, same mutant

Question: For B5, which “RATIO of the metribuzin signal to the DMSO signal” value (“RATIO of the metribuzin signal” for short) is on record?
Answer: 0.99

Question: Which “RATIO of the metribuzin signal” value does the source give for B6 here?
Answer: 1.04

Question: Which “RATIO of the metribuzin signal” value does the source give for B7 here?
Answer: 1.02

Question: Which “RATIO of the metribuzin signal” value does the source give for B8 here?
Answer: 0.90

Question: For B9, which “RATIO of the metribuzin signal” value is on record?
Answer: 1.13

Same assay, conditions: 2 mM metribuzin; H24A null background 1.00E+05 not subtracted

Question: For B1, which “luminescence signal with metribuzin” value is on record?
Answer: 2.39E+05

Question: Which “luminescence signal with metribuzin” value does the source give for B2 here?
Answer: 1.93E+05

Question: For B3, which “luminescence signal with metribuzin” value is on record?
Answer: 1.21E+05

Question: For B4, which “luminescence signal with metribuzin” value is on record?
Answer: 1.07E+05

Same assay, conditions: 2 mM metribuzin; relative to bx9 w/t

Question: For B10, which “SIGNAL: metribuzin signal of mutant divided by the signal of w/t bx9” value is on record?
Answer: 1.58

Question: For B5, which “SIGNAL: metribuzin signal of mutant divided by the signal of w/t bx9” value is on record?
Answer: 1.27

Question: Which “SIGNAL: metribuzin signal of mutant divided by the signal of w/t bx9” value does the source give for B6 here?
Answer: 1.02

Question: For B7, which “SIGNAL: metribuzin signal of mutant divided by the signal of w/t bx9” value is on record?
Answer: 0.92

Question: Which “SIGNAL: metribuzin signal of mutant divided by the signal of w/t bx9” value does the source give for B11 here?
Answer: 2.59

Question: With B12 as the molecule, how does the “SIGNAL: metribuzin signal of mutant divided by the signal of w/t bx9” value read?
Answer: 1.06

Question: For B13, which “SIGNAL: metribuzin signal of mutant divided by the signal of w/t bx9” value is on record?
Answer: 3.90

Question: Which “SIGNAL: metribuzin signal of mutant divided by the signal of w/t bx9” value does the source give for B14 here?
Answer: 1.24

Question: For B8, which “SIGNAL: metribuzin signal of mutant divided by the signal of w/t bx9” value is on record?
Answer: 1.67

Question: For B15, which “SIGNAL: metribuzin signal of mutant divided by the signal of w/t bx9” value is on record?
Answer: 4.98

Question: With B16 as the molecule, how does the “SIGNAL: metribuzin signal of mutant divided by the signal of w/t bx9” value read?
Answer: 1.57

Question: For B4, which “SIGNAL: metribuzin signal of mutant divided by the signal of w/t bx9” value is on record?
Answer: 0.99

Question: For B17, which “SIGNAL: metribuzin signal of mutant divided by the signal of w/t bx9” value is on record?
Answer: 2.82

Question: Which “SIGNAL: metribuzin signal of mutant divided by the signal of w/t bx9” value does the source give for B9 here?
Answer: 1.13

Question: With B18 as the molecule, how does the “SIGNAL: metribuzin signal of mutant divided by the signal of w/t bx9” value read?
Answer: 1.51

Question: Which “SIGNAL: metribuzin signal of mutant divided by the signal of w/t bx9” value does the source give for B19 here?
Answer: 1.22

Same assay, conditions: mutants of SEQ ID No: 1; DMSO in place of metribuzin (background UDP-glucose hydrolysis)

Question: With B10 as the molecule, how does the “luminescence signal in the DMSO control” value read?
Answer: 4.80E+05

Question: For B5, which “luminescence signal in the DMSO control” value is on record?
Answer: 3.59E+05

Question: With B6 as the molecule, how does the “luminescence signal in the DMSO control” value read?
Answer: 2.74E+05

Question: For B7, which “luminescence signal in the DMSO control” value is on record?
Answer: 2.53E+05

Question: With B11 as the molecule, how does the “luminescence signal in the DMSO control” value read?
Answer: 8.45E+05

Question: For B12, which “luminescence signal in the DMSO control” value is on record?
Answer: 2.77E+05

Question: With B13 as the molecule, how does the “luminescence signal in the DMSO control” value read?
Answer: 1.30E+06

Question: With B14 as the molecule, how does the “luminescence signal in the DMSO control” value read?
Answer: 4.00E+05

Question: Which “luminescence signal in the DMSO control” value does the source give for B8 here?
Answer: 5.22E+05

Question: Which “luminescence signal in the DMSO control” value does the source give for B15 here?
Answer: 1.66E+06

Question: With B16 as the molecule, how does the “luminescence signal in the DMSO control” value read?
Answer: 4.80E+05

Question: With B4 as the molecule, how does the “luminescence signal in the DMSO control” value read?
Answer: 1.92E+05

Question: For B17, which “luminescence signal in the DMSO control” value is on record?
Answer: 7.59E+05

Question: Which “luminescence signal in the DMSO control” value does the source give for B9 here?
Answer: 2.80E+05

Question: For B18, which “luminescence signal in the DMSO control” value is on record?
Answer: 5.19E+05

Question: Which “luminescence signal in the DMSO control” value does the source give for B19 here?
Answer: 4.88E+05

Same assay, conditions: mutants of SEQ ID No: 1 in E. coli extracts; 2 mM metribuzin; UDP luminescence

Question: With B10 as the molecule, how does the “luminescence signal observed with 2 mM metribuzin” value (“luminescence signal observed” for short) read?
Answer: 4.43E+05

Question: Which “luminescence signal observed” value does the source give for B5 here?
Answer: 3.56E+05

Question: Which “luminescence signal observed” value does the source give for B6 here?
Answer: 2.86E+05

Question: Which “luminescence signal observed” value does the source give for B7 here?
Answer: 2.58E+05

Question: Which “luminescence signal observed” value does the source give for B11 here?
Answer: 7.25E+05

Question: For B12, which “luminescence signal observed” value is on record?
Answer: 2.98E+05

Question: For B13, which “luminescence signal observed” value is on record?
Answer: 1.09E+06

Question: For B14, which “luminescence signal observed” value is on record?
Answer: 3.47E+05

Question: With B8 as the molecule, how does the “luminescence signal observed” value read?
Answer: 4.68E+05

Question: With B15 as the molecule, how does the “luminescence signal observed” value read?
Answer: 1.39E+06

Question: With B16 as the molecule, how does the “luminescence signal observed” value read?
Answer: 4.40E+05

Question: For B4, which “luminescence signal observed” value is on record?
Answer: 2.76E+05

Question: Which “luminescence signal observed” value does the source give for B17 here?
Answer: 7.89E+05

Question: Which “luminescence signal observed” value does the source give for B9 here?
Answer: 3.15E+05

Question: Which “luminescence signal observed” value does the source give for B18 here?
Answer: 4.22E+05

Question: For B19, which “luminescence signal observed” value is on record?
Answer: 3.40E+05

Experiment: UDP luminescence plate assay of E. coli extracts, saturation mutants of SEQ ID NO: 1, herbicide V
Format: biochemical, Zea mays
Details: improvement factor relative to w/t bx9 = 1.0, rounded to nearest 0.5; extract activity basis; compound V

Question: For B10, which “Most Preferred amino acid substitutions and (IF) based on RLU/min/ul” value is on record?
Answer: C,Q(3.0)

Question: With B5 as the molecule, how does the “Most Preferred amino acid substitutions and (IF) based on RLU/min/ul” value read?
Answer: L(2.0)

Question: For B1, which “Most Preferred amino acid substitutions and (IF) based on RLU/min/ul” value is on record?
Answer: K,R(2.0)

Question: With B2 as the molecule, how does the “Preferred amino acid substitutions and (IF) based on RLU/min/ul” value read?
Answer: N(1.0)

Question: Which “Preferred amino acid substitutions and (IF) based on RLU/min/ul” value does the source give for B6 here?
Answer: M,Y(1.0)

Question: With B3 as the molecule, how does the “Preferred amino acid substitutions and (IF) based on RLU/min/ul” value read?
Answer: S,Q,V,L(1.5)

Question: With B7 as the molecule, how does the “Preferred amino acid substitutions and (IF) based on RLU/min/ul” value read?
Answer: M,N(1.0)

Question: Which “Most Preferred amino acid substitutions and (IF) based on RLU/min/ul” value does the source give for B11 here?
Answer: 5.0

Question: Which “Preferred amino acid substitutions and (IF) based on RLU/min/ul” value does the source give for B12 here?
Answer: M,Y(1.0)

Question: For B13, which “Most Preferred amino acid substitutions and (IF) based on RLU/min/ul” value is on record?
Answer: 5.0

Question: For B14, which “Most Preferred amino acid substitutions and (IF) based on RLU/min/ul” value is on record?
Answer: L,M(3.0)

Question: With B8 as the molecule, how does the “Most Preferred amino acid substitutions and (IF) based on RLU/min/ul” value read?
Answer: L,M(3.0)

Question: With B15 as the molecule, how does the “Most Preferred amino acid substitutions and (IF) based on RLU/min/ul” value read?
Answer: 6.0

Question: For B16, which “Preferred amino acid substitutions and (IF) based on RLU/min/ul” value is on record?
Answer: S,Q,V,L(1.5)

Question: For B4, which “Preferred amino acid substitutions and (IF) based on RLU/min/ul” value is on record?
Answer: M(1.0)

Question: For B17, which “Most Preferred amino acid substitutions and (IF) based on RLU/min/ul” value is on record?
Answer: C,Q(3.0)

Question: Which “Most Preferred amino acid substitutions and (IF) based on RLU/min/ul” value does the source give for B20 here?
Answer: 3.5

Question: With B9 as the molecule, how does the “Preferred amino acid substitutions and (IF) based on RLU/min/ul” value read?
Answer: C,M(1.0)

Question: For B18, which “Preferred amino acid substitutions and (IF) based on RLU/min/ul” value is on record?
Answer: S,Q,V,L(1.5)

Question: For B19, which “Preferred amino acid substitutions and (IF) based on RLU/min/ul” value is on record?
Answer: S,Q,V,L(1.5)
